Laboratory results: US20180155451A1 (published 2018)
Numbering of substitutions follows the chain as printed.

B1: GpH7-A5/GpH7-B3 variant P238_14T/GpL16-k0 (antibody, human IgG1, kappa)
heavy 1: not shown
heavy 2: not shown
light: DIVMTQSPLSLPVTPGEPASISCQASESLVHSNRNTYLHWYLQKPGQSPQLLIYKVSNRFSGVPDRFSGSGSGTDFTLKISRVEAEDVGVYYCSQNTHVPPTFGQGTKVEIERTVAAPSVFIFPPSDEQLKSGTASVVCLLNNFYPREAKVQWKVDNALQSGNSQESVTEQDSKDSTYSLSSTLTLSKADYEKHKVYACEVTHQGLSSPVTKSFNRGEC
notes: Heterodimerized anti-glypican-3 IgG1; alteration in only one H chain (GpH7-B3 side); also called He Ab
B2: GpH7-A5/GpH7-B3 variant D265_07I/GpL16-k0 (antibody, human IgG1, kappa)
heavy 1: not shown
heavy 2: not shown
light: B1 light
notes: Heterodimerized anti-glypican-3 IgG1; substitution in only one H chain (the GpH7-B3 chain); also called He Ab
B3: GpH7-A5/GpH7-B3 variant D265_11K/GpL16-k0 (antibody, human IgG1, kappa)
heavy 1: not shown
heavy 2: not shown
light: B1 light
notes: as for B2
B4: GpH7-A5/GpH7-B3 variant D265_04F/GpL16-k0 (antibody, human IgG1, kappa)
heavy 1: not shown
heavy 2: not shown
light: B1 light
notes: as for B1
B5: GpH7-A5/GpH7-B3 variant S239_12R/GpL16-k0 (antibody, human IgG1, kappa)
heavy 1: not shown
heavy 2: not shown
light: B1 light
notes: as for B1
B6: GpH7-A5/GpH7-B3 variant S239_04F/GpL16-k0 (antibody, human IgG1, kappa)
heavy 1: not shown
heavy 2: not shown
light: B1 light
notes: Heterodimerized anti-glypican-3 IgG1; also called He Ab
B7: GpH7-A5/GpH7-B3 variant D265_14T/GpL16-k0 (antibody, human IgG1, kappa)
heavy 1: not shown
heavy 2: not shown
light: B1 light
notes: as for B2
B8: GpH7-A5/GpH7-B3 variant D265_19Q/GpL16-k0 (antibody, human IgG1, kappa)
heavy 1: not shown
heavy 2: not shown
light: B1 light
notes: as for B2
B9: GpH7-A5/GpH7-B3 variant D265_18N/GpL16-k0 (antibody, human IgG1, kappa)
heavy 1: not shown
heavy 2: not shown
light: B1 light
notes: as for B2
B10: GpH7-A5/GpH7-B3 variant S239_15Y/GpL16-k0 (antibody, human IgG1, kappa)
heavy 1: not shown
heavy 2: not shown
light: B1 light
notes: as for B1
B11: GpH7-A5/GpH7-B3 variant D265_13S/GpL16-k0 (antibody, human IgG1, kappa)
heavy 1: not shown
heavy 2: not shown
light: B1 light
notes: as for B2
B12: GpH7-A5/GpH7-B3 variant E269_01G/GpL16-k0 (antibody, human IgG1, kappa)
heavy 1: not shown
heavy 2: not shown
light: B1 light
notes: as for B2
B13: GpH7-A5/GpH7-B3 variant P238_11K/GpL16-k0 (antibody, human IgG1, kappa)
heavy 1: not shown
heavy 2: not shown
light: B1 light
notes: as for B1
B14: GpH7-A5/GpH7-B3 variant H268_06M/GpL16-k0 (antibody, human IgG1, kappa)
heavy 1: not shown
heavy 2: not shown
light: B1 light
notes: as for B2
B15: GpH7-A5/GpH7-B3 variant P238_12R/GpL16-k0 (antibody, human IgG1, kappa)
heavy 1: not shown
heavy 2: not shown
light: B1 light
notes: as for B1
B16: GpH7-A5/GpH7-B3 variant D265_15Y/GpL16-k0 (antibody, human IgG1, kappa)
heavy 1: not shown
heavy 2: not shown
light: B1 light
notes: as for B2

How the values were obtained:
[1] = target: T1, FcγRIIa R (extracellular domain, C-terminal His tag) (human, UniProt P12318 34-217); experiment: ratio of He/Con_2aR to He/Con_2b (FcγRIIb); SPR relative binding
T1 construct: extracellular domain; also called FcgRIIa R type; 2aR; not shown: His tag attached to the C terminus
T1 sequence (looked up): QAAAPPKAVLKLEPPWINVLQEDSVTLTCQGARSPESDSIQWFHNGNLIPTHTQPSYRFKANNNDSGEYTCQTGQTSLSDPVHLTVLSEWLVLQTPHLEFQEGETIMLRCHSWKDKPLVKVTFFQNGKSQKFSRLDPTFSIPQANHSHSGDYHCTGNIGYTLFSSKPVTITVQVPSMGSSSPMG
Description: (§1) The heterodimerized antibodies He Abs in which one of the H chains was introduced with an alteration were assayed for their binding activities to each activating FcγR and inhibitory FcγR according to the method described in Example 4. […] The activating FcγRs in FIGS. 26, 27, 28, and 29 are FcγRIa, FcγRIIa (R), FcγRIIa (H), and FcγRIIIa, respectively.
(§2) Analysis of interaction between objective antibody and the FcγR was carried out using Biacore T100 (GE Healthcare). HBS-EP+ (GE Healthcare) was used as the running buffer, and the measurement temperature was set to 25° C. Chips produced by immobilizing the antigen peptide by the amine coupling method to a Series S Sencor Chip CM5 (GE Healthcare), or alternatively, chips produced by allowing preliminarily biotinylated antigen peptides to interact with and immobilize onto a Series S Sensor Chip SA (certified) (GE Healthcare) were used. Antibodies of interest were captured onto an antigen peptide-immobilized chip, and allowed to interact to each FcγR diluted with running buffer. To regenerate and repeatedly use the chip, the antibodies captured on the chip were washed off by reacting 10 mM glycine-HCl, pH 1.5.

[2] = target: T2, FcγRIIb (extracellular domain, C-terminal His tag) (human, UniProt P31994 43-217); experiment: SPR (Biacore), antibody captured on antigen-peptide chip, FcγR as analyte; relative binding amount
T2 construct: extracellular domain; also called FcgRIIb; 2b; not shown: His tag attached to the C terminus
T2 sequence (looked up): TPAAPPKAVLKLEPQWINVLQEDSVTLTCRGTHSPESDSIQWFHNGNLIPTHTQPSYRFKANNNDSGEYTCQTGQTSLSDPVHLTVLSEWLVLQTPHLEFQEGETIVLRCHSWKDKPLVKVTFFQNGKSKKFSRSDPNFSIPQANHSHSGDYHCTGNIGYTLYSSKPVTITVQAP
Description: as §1, §2

[3] = target: T1, FcγRIIa R (extracellular domain, …); experiment: as above
Description: as §1, §2

FcγRIIa H [4] = target: T3, FcγRIIa H (human, UniProt P12318 34-217); experiment: SPR (Biacore), antibody captured on antigen-peptide chip, FcγR as analyte; binding relative to GpH7-A5/GpH7-B3/GpL16-k0 = 100
T3 construct: extracellular domain; also called FcgRIIa H type; 2aH
T3 sequence (looked up): T1 sequence (looked up) with R134H

FcγRIIb = target: T4, FcγRIIb (human, UniProt P31994 43-217); experiment: as above
T4 construct: extracellular domain; also called FcgRIIb; 2b
T4 sequence (looked up): T2 sequence (looked up)

FcγRIIa H [5] = target: T3, FcγRIIa H; experiment: ratio of He/Con_2aH to He/Con_2b (relative SPR binding to FcγRIIa H over that of the same antibody to FcγRIIb)

Row | Binder | He_2aR/2b (IIaR/IIb) [1] | He/Con_2b [2] | He/Con_2aR [3] | He/Con_2aH (FcγRIIa H [4]) | He/Con_2b (FcγRIIb) | He_2aH/2b (IIaH/IIb) (FcγRIIa H [5])
1 | B1 | 1.44 | 50.7 % of control (GpH7-A5/GpH7-B3/GpL16-k0 = 100) | 73.1 % of control (GpH7-A5/GpH7-B3/GpL16-k0 = 100) | – | – | –
2 | B2 | – | – | – | 3.1 % of HeCon Ab | 1.3 % of HeCon Ab | 2.35
3 | B3 | – | – | – | 27.8 % of HeCon Ab | 14.9 % of HeCon Ab | 1.87
4 | B4 | 1.79 | 3.2 % of control (GpH7-A5/GpH7-B3/GpL16-k0 = 100) | 5.6 % of control (GpH7-A5/GpH7-B3/GpL16-k0 = 100) | – | – | –
5 | B5 | 1.38 | 39.1 % of control (GpH7-A5/GpH7-B3/GpL16-k0 = 100) | 53.9 % of control (GpH7-A5/GpH7-B3/GpL16-k0 = 100) | – | – | –
6 | B6 | 1.24 | 44.1 % of control (GpH7-A5/GpH7-B3/GpL16-k0 = 100) | 54.8 % of control (GpH7-A5/GpH7-B3/GpL16-k0 = 100) | – | – | –
7 | B7 | – | – | – | 24.1 % of HeCon Ab | 16 % of HeCon Ab | 1.5
8 | B8 | – | – | – | 47.7 % of HeCon Ab | 33.4 % of HeCon Ab | 1.43
9 | B9 | – | – | – | 12.4 % of HeCon Ab | 6.1 % of HeCon Ab | 2.01
10 | B10 | 1.21 | 34.9 % of control (GpH7-A5/GpH7-B3/GpL16-k0 = 100) | 42.2 % of control (GpH7-A5/GpH7-B3/GpL16-k0 = 100) | – | – | –
11 | B11 | – | – | – | 19.8 % of HeCon Ab | 11.3 % of HeCon Ab | 1.75
12 | B12 | – | – | – | 71.5 % of HeCon Ab | 51.5 % of HeCon Ab | 1.39
13 | B13 | 2.03 | 18.1 % of control (GpH7-A5/GpH7-B3/GpL16-k0 = 100) | 36.9 % of control (GpH7-A5/GpH7-B3/GpL16-k0 = 100) | – | – | –
14 | B14 | – | – | – | 84.8 % of HeCon Ab | 65.7 % of HeCon Ab | 1.29
15 | B15 | 1.57 | 51.4 % of control (GpH7-A5/GpH7-B3/GpL16-k0 = 100) | 80.5 % of control (GpH7-A5/GpH7-B3/GpL16-k0 = 100) | – | – | –
16 | B16 | – | – | – | 3.7 % of HeCon Ab | 0.6 % of HeCon Ab | 6.07
